Test: yeast display, Sf9 membrane polyspecificity reagent, FACS + sequencing; frameworks hold sequencing errors
How it was run: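 Using colony PCR, genes from sorted yeast display clones were amplified, then sequenced on MiSeq at 2 × 250 and filtered by CDR length. The clones had been stained with 10% biotinylated, detergent-solubilized Sf9 membrane reagent for 1 hour at 4 °C and sorted by FACS into low and high (top ~1%) gates on anti-HA and streptavidin fluorescence. Polyreactivity labels come from the gate of origin.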

Row | Sequence | polyreactivity (PSR sort gate)
1 | QVQLVESGGGLVQAGGSLRLSCAASGRTVGYYGMGWYRQAPGKERELVAAITGSGGSTYYADSVKGRFTISRDNAKNTVYLQMNSLKPEDTAVYYCAATYLSRWTLYDYWGQGTQVTVSS | high polyreactivity
2 | QVQLVESGGGLVQAGGSLRLSCAASGRTVSGYSMGWYIQAPGKERELVARITSGYSTNYADSVKWRFTISRDNAKNTVYLQMNCMKPEDTAVYYCAADRVWAFWTYGYWGQGTQVTVSS | low polyreactivity
3 | QVQLVESGGGLVQAGGSLRLSCAASGRTVWDSAMGWYRQAPGNERELVAAIASNTGSTYYADSVKGRFTISRDNAKNTVYLQLNSLKPEDTAVYYCNVEYYYDFNFNYDDYEFDYWGQGTHVTVSS | high polyreactivity
4 | QVQLVESGGGLVQAGGSLRLSCAASGRTVYKNTMGWYRQAPGKERELVAAISIRGGSTYYADSVKGRFTISRDNAKNTVYLQMNSLKPEDTAVYYCNVVYQKAARIVDFDYWGQGTQVTVSS | high polyreactivity
5 | QVQLVESGGGLVQAGGSLRLSCAASGRTVYVYYMGWYRQAPGKERELVAAISTNYADSVKGRCTISRDNAKNTVYFQMNSLIPEDTAVYYCAADDIHYVIHAYYSTGVDYWGQGTQVTVSS | low polyreactivity
6 | QVQLVESGGGLVQAGGSLRLSCAASGRTYFTNAMGWYRQAPGKERELVAAITGSGGSTSYADSVKVRFTISRDNAKNTVYLQMNSLKPEDTAVYYCAAEWQELEYVYWGQGTQVTVSS | low polyreactivity
7 | QVQLVESGGGLVQAGGSLRLSCAASGRTYGIYAMGWYRQAPGKEREFVAAISWSSGGSTYYADSVKGRFTISRDNAKNTVYFQMISLKPEDTAVYYCNVDTIYNLESDYWGQGTQVTVSS | low polyreactivity
8 | QVQLVESGGGLVQAGGSLRLSCAASGRTYRFNAMGWYRQAPGKERELVAAISKSGGSTYYADSVKGRFTISRDNAKNTVYLQMNSLKPEDTAVYYCAAQTYLYEYKYWGQGTQVTVSS | high polyreactivity
9 | QVQLVESGGGLVQAGGSLRLSCAASGRTYRTYAMGWYRQAPGKEREFVAAITSSGGSTYYADSVKGRFTISRDNAKNTVDLEMNSLKPEDTAVYSCNAKRRYGPDKYDYWGQGTQVTVSS | high polyreactivity
10 | QVQLVESGGGLVQAGGSLRLSCAASGRTYRWYVMGWYIQAPGTERELVAAISQSGGSTYYADSVKGRFTISRDNAMNTVYLEMYSLKPEDTAVYYCNAYPRYGGYAYGRGDYWGQGTQVTVSS | high polyreactivity
11 | QVQLVESGGGLVQAGGSLRLSCAASGRTYRYNAMGWYRQAPGKERELVATITRTGSTDYADSVKGRFTISRDNAKNTVYLQMNSLKPEDTAVYYCNARGVYSGRTYYYIYDYWGQGTQVTVSS | high polyreactivity
12 | QVQLVESGGGLVQAGGSLRLSCAASGRTYSYNAMGWYRQEPGKERELVAGITYTGGRTYYADSVKGRFTISRDNAKNTVYLQMNSLKPEDTAVYYCAVGEYGHWLYRYEYWGQGTQVTVSS | high polyreactivity
13 | QVQLVESGGGLVQAGGSLRLSCAASGRTYWPNALGWSRQARGKERELVAAISWRGGSTSYADSVKGRFTISRDNAKNTVYLQMNRLKPEDTAVYYCAATSIRRNSKVLISGRLYDYWGQGTQVTVSS | high polyreactivity
14 | QVQLVESGGGLVQAGGSLRLSCAASGRTYYYYAMGWYRQAPGTQRELVASIRYSTGSTYYADSVKARFTISRDNAKNTVYLQKNSLKPVDTAVYYCAGLRYARASRYDYWGLGTQVTVSS | high polyreactivity
15 | QVQLVESGGGLVQAGGSLRLSCAASGRVFTPYAMGWYRQAPGKERELVAVIRDGSTYYADSVKGRFTISRDNAKNTVYLQMNSLKPEDTAVYYCRYDIWVWWSGAYDYWGQVTQVTVSS | low polyreactivity
16 | QVQLVESGGGLVQAGGSLRLSCAASGSFGFYVMGWYRQAPGKERELVSAISSVGSTNYADSVKGRFTISRDNAKNTVYFQMNSLKPEDTAVYYCARRYWYPDAFYRYDYWGQGTQVTVSS | low polyreactivity
17 | QVQLVESGGGLVQAGGSLRLSCAASGSFYDRYVMGWYRQAPGKERELVAAISSSGGSTYYADSVKGRFTISRDNAKNTVYFQMNSLKPEDSAVYYCAAKFSYGRYNYWGQGTQVTVSS | high polyreactivity
